In patent publication US20140088023A1 (UNIVERSITY OF TOLEDO, published 2014):
Ends that are not written are not given here.

T1: soluble guanylyl cyclase alpha 1 (sGCα1) (UniProt Q02108 1-690)
T1 construct: The assay field of each row says which; No construct limits or tags are stated; also called endogenous sGCα1; E. coli-expressed sGCα1
T1 sequence (looked up): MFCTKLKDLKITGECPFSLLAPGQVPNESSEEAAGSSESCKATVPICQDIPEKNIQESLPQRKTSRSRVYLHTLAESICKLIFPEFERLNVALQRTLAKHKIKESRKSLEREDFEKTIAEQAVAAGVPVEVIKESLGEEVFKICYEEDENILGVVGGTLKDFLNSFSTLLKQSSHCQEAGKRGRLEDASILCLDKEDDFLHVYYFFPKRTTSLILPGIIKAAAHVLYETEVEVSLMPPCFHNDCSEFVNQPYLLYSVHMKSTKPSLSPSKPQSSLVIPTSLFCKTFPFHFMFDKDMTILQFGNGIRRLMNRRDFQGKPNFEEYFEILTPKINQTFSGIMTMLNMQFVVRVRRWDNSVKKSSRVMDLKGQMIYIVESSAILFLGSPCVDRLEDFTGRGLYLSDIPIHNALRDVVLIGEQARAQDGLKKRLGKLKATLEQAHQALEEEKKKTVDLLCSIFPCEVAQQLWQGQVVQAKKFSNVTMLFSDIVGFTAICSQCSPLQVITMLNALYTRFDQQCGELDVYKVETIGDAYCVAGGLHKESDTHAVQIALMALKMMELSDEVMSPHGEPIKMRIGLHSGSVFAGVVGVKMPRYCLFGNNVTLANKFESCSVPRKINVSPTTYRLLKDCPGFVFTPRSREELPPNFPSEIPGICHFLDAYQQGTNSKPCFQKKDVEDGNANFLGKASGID

B1: Peptide KP4-8R (peptide)
peptide: KAFPRRRRRRRR
B2: Peptide TC3-8R (peptide)
peptide: TFCRRRRRRRR
B3: Peptide FP6-8R (peptide)
peptide: FCKAFPRRRRRRRR-NH2
B4: Peptide FF5-F1A-8R (peptide)
peptide: ACKAFRRRRRRRR-NH2
B5: Peptide FF5-C2M-8R (peptide)
peptide: FMKAFRRRRRRRR-NH2
B6: Peptide FF5-K3A-8R (peptide)
peptide: FCAAFRRRRRRRR-NH2
B7: Peptide FF5-F5A-8R (peptide)
peptide: FCKAARRRRRRRR-NH2
B8: Peptide TF6-8R (peptide)
peptide: TFCKAFRRRRRRRR-NH2
B9: Peptide CF4-8R (peptide)
peptide: CKAFRRRRRRRR-NH2
B10: Peptide TP7-8R (peptide)
peptide: TFCKAFPRRRRRRRR-NH2
B11: Peptide FF5-8R (peptide)
peptide: FCKAFRRRRRRRR-NH2
B12: Peptide FA4-8R (peptide)
peptide: FCKARRRRRRRR
B13: Peptide A-8R (peptide)
peptide: Ac-TFCKAFPFHIIRRRRRRRR-OH
B14: Peptide FF5-C2A-8R (peptide)
peptide: FAKAFRRRRRRRR-NH2

Molecular target: T1, soluble guanylyl cyclase alpha 1 (sGCα1)
Test: competitive binding assay

Binder	binding result
B1	no binding

Molecular target: T1, soluble guanylyl cyclase alpha 1 (sGCα1)
Test: cell-based or functional assay

Binder	IC50 (µM), cytotoxicity, Day 3, LNCaP cell culture [µM]	IC50 (µM), cytotoxicity, Day 6, LNCaP cell culture [µM]
B2	72	140
B3	22	35
B4	200	160
B5	90	65
B6	60	38
B7	160	120
B8	18	28
B9	62	120
B10	16	23
B11	22	40
B12	43	90
B13	8	16
B14	~210	145
